# From the RNAGym collection of RNA variant scans (doi:10.1073/pnas.2313332121)
# Fewer inactive variants are shown than the library holds.
# B1: TPR 5TU (parent)
# chain: GGAUCUUCUCGAUCUAACAAAAAAGACAAAUCUGCCACAAAGCUUGAGAGCAUCUUCGGAUGCAGAGGCGGCAGCCUUCGGUGGCGCGAUAGCGCCAACGUUCUCAACUAUGACACGCAAAACGCGUGCUCCGUUGAAUGGAGUUUAUCAUG
# Variants of: B1
# Assay: polymerase ribozyme fitness, log enrichment relative to wild type (log ratio); higher = more active; in vitro selection for triplet polymerase activity
# Outline: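 A heterodimeric triplet polymerase ribozyme had each of its subunits mutagenized by PCR into a library, which was transcribed. One round of in vitro selection, done in triplicate, annealed each library with a biotinylated primer, its partner subunit and triplets, then incubated it frozen at −7 °C before gel excision of extended constructs, streptavidin-bead capture and RT-PCR. Fitness is the logarithm of genotype enrichment relative to wild-type enrichment, based on Illumina sequencing of inputs and outputs and inverse-variance-weighted replicate averages. A base-2 logarithm is used, and genotypes were kept only with ≥10 input reads and ≥1 read per output.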
row,Variant,polymerase ribozyme fitness (log ratio)
1,C14U A138C,-3.75
2,C14A C85A,-2.69
3,C14A A21U G59U G133C,-3.06
4,C14G C95G C96G,-4.07
5,C14A U90G A137C,≤ -4.2
6,C14A C38A G42C U56G G67C G84A C108U U127C,≤ -4.2
7,C14U C18G C32G A66C C93U A98U,≤ -4.2
8,U13G G83C C99G C118G C123U A137G,≤ -4.2
9,C14G U77G A97U U111C,-4.01
10,U13G G141C,-1.88
11,C14A A41U C76G C87A G92C U144G,≤ -4.2
12,C14A A41C C76U G84U,-2.89
13,C14U A17U A24G A41C C51U U56A C93A A115C,≤ -4.2
14,C14A A17G G74U C85U C99G U101A U148A,≤ -4.2
15,C14A A24U U90A,≤ -4.2
16,C14G A40G A41C C54U C85G C99U,≤ -4.2
17,C14G A30U A41C C43U G50C U55G C75G C118U A119C,≤ -4.2
18,C14G U82A G84A C87U C118G,-3.78
19,C14A A16U A49G G50A C57A A60G C95G U101C A110G,≤ -4.2
20,C14G G59C C69A A142G,≤ -4.2
21,U13G U90G,-4.04
22,C14U A29U C54G G83U G84U C105G U151G,≤ -4.2
23,C14G A19U G59C G81U C95U G141A,-3.74
24,C14U A41C C75G G84U C118A,≤ -4.2

row,Variant,polymerase ribozyme fitness (log ratio)
1,C14U A47C C54U G84A,-1.86
2,C14A A39C G70A U130G,≤ -4.2
3,C14G G86C,≤ -4.2
4,C14G C18U G92C,-2.89
5,C14G U61A C87U C95G U135G A142C,≤ -4.2
6,C14G A21U A30U U31C,≤ -4.2
7,C14G C18U,-1.18
8,C14G A19U C87G U145A,≤ -4.2
9,C14A C38G G81U G94U,-3.15
10,C14U A26C G48C U53G C54A C93A U145A U148C,≤ -4.2
11,C14A A17U A40U C57G G84U C96A A121C,≤ -4.2
12,C14G A19C,-1.66
13,C14G A19U G34U C87G G100A A142C,≤ -4.2
14,C14A G25A U53G G84C C87U G117C G124A,≤ -4.2
15,C14U A47C G84A,-2.49
16,C14G A37C,-3.05
17,C14G A41U G62C C95U C96A G112U A142U U146A A150G,≤ -4.2
18,C14G U15C G84U,-1.26
19,C14U A28U A122G G141C,-4.15
20,C14U A16C C51U A52G C93U C116A A121C,-1.81
21,C14G A21U A52G C85A C118G G128A G141C,≤ -4.2
22,C14G G65U G67U G133A U135A,≤ -4.2
23,C14G C35A A60G U130C U134C,≤ -4.2
24,C14G A17U A37U A52G C57U A91U U127A U134A A150U,≤ -4.2

row,Variant,polymerase ribozyme fitness (log ratio)
1,C14G C32U G48A C103U U127C,≤ -4.2
2,C14A A29U C96A U101G G133C U144C,≤ -4.2
3,C14G A23C C32U C96U,-4.1
4,C14A A16C A19U U82A G83U C149U,-3.89
5,C14U C35A A40G G84A,≤ -4.2
6,C14U C54U G68C G84C C87G A91C A147C,≤ -4.2
7,C14U C54U G84A G133U,-3.87
8,C14U C54U C87A A89G C96U A121U A142C,≤ -4.2
9,C14G A73G C79G A98G G143C,≤ -4.2
10,C14G U15G C18G U55G G68A,≤ -4.2
11,C14G A30G G46C C95U,-4.17
12,C14G C76G A89C C93G C95G U127G U151G,≤ -4.2
13,C14A U53A C96A A98C A120U G141A,-3.99
14,C14G C27U G48A C57A A60U G88C A106U,≤ -4.2
15,C14A U31A U55A G92A C125U A142U,≤ -4.2
16,C14G C51U U61A,-4.06
17,C14U A19U C87U C99A,-3.91
18,C14G C85U,-2.1
19,C14G C85A C116U A122C,≤ -4.2
20,C14A G58A A89U G94U,-3.75
21,C14U C54U C57U C72U G83A,-4.05
22,C14U A23C,≤ -4.2
23,C14G U15C C51U G68A G83A U90G C149G,≤ -4.2
24,C14A U15C A19C A20C U45C G86U,-4.11

row,Variant,polymerase ribozyme fitness (log ratio)
1,C14A C27G C32G U77C G84A,≤ -4.2
2,C14G C18U A21G G86C C105U C129A U130C,≤ -4.2
3,C14G C75U G94C A122U G124A,-3.86
4,C14G U53A C85G U90A A91U C99A C118A A120U,≤ -4.2
5,C14G A28G C51U A52U G88A U109G,≤ -4.2
6,C14G A52G C75U C85U U144C,-3.71
7,C14A A52G U55G C99U,-3.48
8,U13G G80C G94U U134A,≤ -4.2
9,C14G U31G,-2.12
10,C14U A17G G70C G80A A137U,≤ -4.2
11,C14U A17C C18G A20G G59U C85U A91U C118U G140A,≤ -4.2
12,C14U C43U C72A G84A C93G C95G A142G U144A,≤ -4.2
13,C14G U148A,-4.14
14,C14U A17G G83A C108U,≤ -4.2
15,C14G A91U C93G C125A,≤ -4.2
16,C14G C38U G68U G80U A91G C103A U139C,≤ -4.2
17,C14G U33C U56A C85A C99G G117U C123U,-3.91
18,C14G A26U A30U C75A C93U G141A U148G U151G,≤ -4.2
19,C14G C79A C93G C96A,≤ -4.2
20,U13G G68C G84A,≤ -4.2
21,C14A C125A,-1.75
22,C14U C57A A89G C96U U101A G136U,≤ -4.2
23,C14G U82C,-3.65
24,C14A A16U A19U A52G G68A C85G U151G,≤ -4.2

row,Variant,polymerase ribozyme fitness (log ratio)
1,C14G C85A C95G C103U U146A,≤ -4.2
2,C14G A22C A52U C96A A97U G117U,≤ -4.2
3,U13G U61A A89U C96U,-3.58
4,C14A G58A G68A U78A G94A,≤ -4.2
5,C14A A64U C93U G141A,≤ -4.2
6,C14G G50U C95U C96U A115G,-4.1
7,C14A A17G A22U A24C A41C G70A U78A U90C C129U,≤ -4.2
8,C14G A89U C99A A107C,≤ -4.2
9,C14U A19U U55A,-1.9
10,C14A G62U G94A,-2.9
11,C14G A30U U61A G92A C99A A115G,≤ -4.2
12,C14G G59A C87U,-3.82
13,C14A G59A G84A A106G C125G U148C C149U,≤ -4.2
14,C14G A24U A28U C43U A73G U82C C103G G136A U146C,≤ -4.2
15,C14A C38U,-1.31
16,C14G G88C C125G,-4.08
17,C14G C43A G88U A110U G112C U127G,≤ -4.2
18,C14A C75U,-1.84
19,C14G A19C C75U U82C C93U A97U C105G,≤ -4.2
20,C14G G25C A47U G50A C93A U102A G124C,≤ -4.2
21,C14G C27G G94A,≤ -4.2
22,C14G G83A U90G G92U U102G C105A C118U A120C U146G,≤ -4.2
23,C14A U82G C96G,-2.31
24,C14G A19G G46A C72G G84U,≤ -4.2

row,Variant,polymerase ribozyme fitness (log ratio)
1,C14G A24C A60G G62A G65C C87U U145G,≤ -4.2
2,C14A G80A C85U C103G G117U G124U A142G,≤ -4.2
3,C14G U56G C57U C63U C72U U151G,≤ -4.2
4,C14U A122G,-1.71
5,C14G A29C U53A C95U C114U G140A,-3.68
6,C14G A22C A39C A52G C75G U82G G140U,≤ -4.2
7,C14G U55G C57U G86C C125G A137U,≤ -4.2
8,C14A C35G G59C A64C A73G G141U,≤ -4.2
9,C14A U102G,≤ -4.2
10,C14G C131U,-1.27
11,C14A G80C G86U C118U,≤ -4.2
12,C14A C99G,-1.66
13,C14U A28U C51G A97G,≤ -4.2
14,C14G C99G,-3.32
15,C14G A91U A97G,-3.96
16,C14G C36U G92C,≤ -4.2
17,C14G U31A G136A,-2.23
18,C14A A29C C96G A150U,≤ -4.2
19,C14G C51U C96U,-3.1
20,C14G G84A,-2.16
21,C14A G62C C76A C87A G117U A137C U146G,≤ -4.2
22,C14U A52U C54A G83U C96G A98U,-3.86
23,C14U A47C G50A G70A U77C C85A C125G C132A A142U,≤ -4.2
24,C14G A20G A24U C72G U82G A97G U101C C103G G136A,≤ -4.2

row,Variant,polymerase ribozyme fitness (log ratio)
1,C14G U53A C54A U61G G62U U146C,≤ -4.2
2,C14U A17U A28G U44A A73G C95A G100U A106G A115G,≤ -4.2
3,C14G G83U,-2.05
4,C14U A19C C76U C99U,-3.03
5,C14G C87U G141A,-2.56
6,C14G C57A C85U C99A C123U,-3.49
7,C14G C93A,-3.68
8,C14G C95U,-1.57
9,C14G C85U C96U A113C A122U G143A,≤ -4.2
10,C14A A20C C27G,≤ -4.2
11,C14G C69G C96A G124A,-3.69
12,C14U C32G U33G A47U U53A G74A C95G A106G U135A,≤ -4.2
13,C14G A30U U33G A49C A52U C72G A73G C87U U144G,≤ -4.2
14,C14G A23G G88A,≤ -4.2
15,C14G A73G G88C A98U C99G,≤ -4.2
16,C14G A20U G50A U56A G65U C93A C131A,≤ -4.2
17,C14G A91U G143U,-3.88
18,C14G C18U A52G G81U G92A C131G,≤ -4.2
19,U13G C103A,-2.97
20,C14G A40G A73G C85U U139A,≤ -4.2
21,C14G G50C A66G C85G A106G,≤ -4.2
22,C14A C27G A91C A115G,≤ -4.2
23,C14A C18U A22U A26U U82C C95U U145G U148C C149U,≤ -4.2
